In article PMC11263391, “Molecular insights into degron recognition by CRL5^ASB7 ubiquitin ligase” (Nature Communications, 2024):

How the values were obtained:
[1] = molecular target: ASB7-Elongin B-Elongin C ternary complex (wild-type ASB7, residues 11-318) (human) (UniProt Q9H672); assay: ITC; peptide in the syringe titrated into ASB7-Elongin B/C in the cell; MicroCal PEAQ-ITC, 16 °C, 20 mM Tris-HCl pH 7.5, 150 mM NaCl; 39–156 μM protein, 0.8–4 mM peptide; repeated three times, mean ± SD
[2] = molecular target: ASB7 Arg185-to-alanine mutant in complex with Elongin B/C (human) (UniProt Q9H672); assay: ITC; peptide (0.8–4 mM) titrated into the ASB7 complex (39–156 µM); 16 °C; 20 mM Tris-HCl pH 7.5, 150 mM NaCl; MicroCal PEAQ-ITC
[3] = molecular target: ASB7 D116A mutant in complex with Elongin B/C (human) (UniProt Q9H672); assay: as above
[4] = molecular target: ASB7 Phe182 alanine mutant in complex with Elongin B/C (human) (UniProt Q9H672); assay: as above
[5] = molecular target: ASB7 R160A mutant in complex with Elongin B/C (human) (UniProt Q9H672); assay: as above
[6] = molecular target: ASB7 with Trp118 in ANK3 or Phe82 in ANK4 replaced with alanine; assay: as above

Row | Substance | Kd [1] [nM] | stoichiometry N [1] | fold decrease in binding affinity against wild-type ASB7 [2] [fold] | fold reduction in binding against wild-type ASB7 [3] [fold] | fold decrease in binding affinity against wild-type ASB7 [4] [fold] | fold decrease in binding affinity against wild-type ASB7 [5] [fold] | fold decrease in binding affinity against wild-type ASB7 [6] [fold]
1 | LZTS1 degron peptide, 22 residues (…) | 600 | 0.75 |  |  |  |  | 
2 | LZTS1-degron 23-residue peptide |  |  | 4 | 7 | 3 | 3 | 10 to 30
